Measurements published in patent publication CN109021107A (JIANGSU RUONAIBO BIOLOGY MEDICAL TECH CO LTD, dated 2018).

B1: HUL01 scFv displayed on phage (scFv)
scFv: EVQLQESGPGLVKPSQTLSLTCTVSGDSFSSGYWNWIRQHPGKGLEYIGYVSYTGSTYYIPSLKSRVTISRDTSKNQFSLKLSSVTAADTAVYYCAGYRDWLHGYFDYWGQGTTVTVSSGGGGSGGGGSGGGGSDIQMTQSPSSLSASVGDRVTITCKASQNVGTNVAWYQQKPGKAPKRLIYSASYRFSGVPSRFSGSGSGTEFTLTISSLQPEDFATYYCQQYNGYPLTFGQGTKLEIK
notes: also called clone1; clone2
B2: HUL02 scFv displayed on phage (scFv)
scFv: EVQLQESGPGLVKPSQTLSLTCTVSGDSFSSGYWNWIRQHPGKGLEYIGYVSYTGSTYYIPSLKSRVTISRDTSKNQFSLKLSSVTAADTAVYYCAGYRDWLHGYFDYWGQGTTVTVSSGGGGSGGGGSGGGGSDIQMTQSPSSLSASVGDRVTITCKASQNVMDNVAWYQQKPGKAPKRLIYSASYRFSGVPSRFSGSGSGTEFTLTISSLQPEDFATYYCQQYNGYPLTFGQGTKLEIK
notes: Phage clone from the library built on the HUL01 scFv template; also called clone4
B3: murine monoclonal antibody specifically binding PD-L1 (hybridoma clone of Example 1) (antibody, V domains shown)
VH: EVQLQESGPSLVQPSQTLSLTCSVTGDSFTSGYWNWIRKFPDNKLQYMGYVSYTGSTYYIPSLKSRISITRDTSKNQYFLQLNSVTSEDTATYFCAGYRDWLHGYFDYWGQGTTLTVSS
VL: DIVMTQSQKFMSTSIGDRVSVTCKASQNVGTNVAWYQLKPGQSPKALIYSASYRFSGVPDRFTGSGSGTEFTLTITNVQSEDLTDYFCQQYNGYPLTFGAGTKLEVK
notes: Mouse IgG from hybridoma supernatant; also called 鼠源特异性结合PD-L1单克隆抗体; 鼠源抗体
B4: HUL01 (antibody, human IgG1, kappa, N297A, V domains shown)
VH: EVQLQESGPGLVKPSQTLSLTCTVSGDSFSSGYWNWIRQHPGKGLEYIGYVSYTGSTYYIPSLKSRVTISRDTSKNQFSLKLSSVTAADTAVYYCAGYRDWLHGYFDYWGQGTTVTVSS
VL: DIQMTQSPSSLSASVGDRVTITCKASQNVGTNVAWYQQKPGKAPKRLIYSASYRFSGVPSRFSGSGSGTEFTLTISSLQPEDFATYYCQQYNGYPLTFGQGTKLEIKR
notes: expressed in 293C18 cells, Protein A purified; also called clone1; clone2
B5: HUL02 (antibody, human IgG1, kappa, N297A, V domains shown)
VH: EVQLQESGPGLVKPSQTLSLTCTVSGDSFSSGYWNWIRQHPGKGLEYIGYVSYTGSTYYIPSLKSRVTISRDTSKNQFSLKLSSVTAADTAVYYCAGYRDWLHGYFDYWGQGTTVTVSS
VL: DIQMTQSPSSLSASVGDRVTITCKASQNVMDNVAWYQQKPGKAPKRLIYSASYRFSGVPSRFSGSGSGTEFTLTISSLQPEDFATYYCQQYNGYPLTFGQGTKLEIKR
notes: also called clone4; PD-L1抗体HUL02

Legend:
[1] = biological target: T1, PD-L1 on PD-L1 overexpressing cells (human, UniProt Q9NZQ7 19-290); assay: phage cell-binding ELISA on PD-L1 overexpressing cells, anti-M13-HRP
T1 construct: whole, on cells; also called PD-L1过表达细胞; PD-L1稳定过表达CHO细胞株

[2] = biological target: T2, recombinant PD-L1-His protein (human, UniProt Q9NZQ7 19-238); assay: hybridoma supernatant screen, ELISA on coated PD-L1-His
T2 construct: also called 重组PD-L1-HIS蛋白; PD-L1蛋白; not shown: His tag

[3] = biological target: T1, PD-L1 on PD-L1 overexpressing cells; assay: inhibition of biotinylated PD1 binding to PD-L1 overexpressing cells, Eu-streptavidin
[4] = biological target: T3, recombinant PD-L1-Fc protein (human, UniProt Q9NZQ7 19-238, limits assumed); assay: competition ELISA, coated PD-L1-Fc, competitor biotinylated PD1 0.5ug/ml
T3 construct: also called 重组PD-L1-Fc蛋白; PD-L1重组蛋白; not shown: Fc part

[5] = biological target: T1, PD-L1 on PD-L1 overexpressing cells; assay: cell binding, PD-L1 overexpressing cells, anti-human-IgG-Eu fluorescence
[6] = biological target: T1, PD-L1 on PD-L1 overexpressing cells; assay: cell-based or functional assay
[7] = biological target: T2, recombinant PD-L1-His protein; assay: ELISA, coated PD-L1-HIS, donkey anti-human IgG-HRP
[8] = biological target: T2, recombinant PD-L1-His protein; assay: SPR, BIAcore T200, antibody captured by goat anti-human IgG on CM5 chip, 300nM PD-L1-HIS as analyte
[9] = biological target: T4, recombinant human B7-1 (human, UniProt P33681 35-242, limits assumed); assay: ELISA, coated recombinant protein, anti-human IgG-HRP
T4 construct: also called 人B7-1
T4 sequence (looked up): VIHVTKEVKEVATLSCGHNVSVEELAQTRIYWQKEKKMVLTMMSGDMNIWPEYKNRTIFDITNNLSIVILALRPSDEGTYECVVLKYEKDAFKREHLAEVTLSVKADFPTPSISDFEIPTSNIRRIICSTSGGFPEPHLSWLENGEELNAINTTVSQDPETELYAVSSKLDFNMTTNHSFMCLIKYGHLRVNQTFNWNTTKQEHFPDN

[10] = biological target: T5, recombinant human PDL2 (human, UniProt Q9BQ51 20-220, limits assumed); assay: as above
T5 construct: also called 人PDL2
T5 sequence (looked up): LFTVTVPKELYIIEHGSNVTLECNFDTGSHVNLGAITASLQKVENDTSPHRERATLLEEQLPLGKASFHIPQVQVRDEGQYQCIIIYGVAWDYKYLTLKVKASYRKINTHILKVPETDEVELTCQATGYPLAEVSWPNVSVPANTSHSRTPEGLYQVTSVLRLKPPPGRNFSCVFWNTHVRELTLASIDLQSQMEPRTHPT

[11] = biological target: T6, recombinant human B7-2 (human, UniProt P42081 24-247, limits assumed); assay: as above
T6 construct: also called 人B7-2
T6 sequence (looked up): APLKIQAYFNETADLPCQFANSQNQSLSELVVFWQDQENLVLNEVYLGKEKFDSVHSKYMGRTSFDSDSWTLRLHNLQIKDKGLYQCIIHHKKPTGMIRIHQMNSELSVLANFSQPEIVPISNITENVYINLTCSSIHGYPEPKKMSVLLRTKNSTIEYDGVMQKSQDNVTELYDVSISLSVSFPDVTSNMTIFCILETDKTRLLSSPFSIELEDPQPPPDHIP

T2 sequence (Q9NZQ7 19-238 limits assumed): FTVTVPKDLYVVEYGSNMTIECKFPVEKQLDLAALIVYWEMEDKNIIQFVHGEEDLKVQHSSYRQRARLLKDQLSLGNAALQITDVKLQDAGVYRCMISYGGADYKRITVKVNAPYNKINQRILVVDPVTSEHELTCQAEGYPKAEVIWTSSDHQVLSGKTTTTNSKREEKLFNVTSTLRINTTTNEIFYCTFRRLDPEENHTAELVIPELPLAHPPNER
T1 sequence (Q9NZQ7 19-290): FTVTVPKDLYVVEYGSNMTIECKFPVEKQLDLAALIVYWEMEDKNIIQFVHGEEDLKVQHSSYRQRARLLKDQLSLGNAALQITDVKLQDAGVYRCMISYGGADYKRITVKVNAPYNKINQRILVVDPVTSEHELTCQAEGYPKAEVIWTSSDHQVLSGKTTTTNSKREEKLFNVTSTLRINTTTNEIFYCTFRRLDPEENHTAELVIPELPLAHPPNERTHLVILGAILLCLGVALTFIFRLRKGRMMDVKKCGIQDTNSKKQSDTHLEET
T3 sequence (Q9NZQ7 19-238 limits assumed): as the sequence (Q9NZQ7 19-238 limits assumed) above

| Binder | binding result [1] | IC50 [3] [µg/mL] | IC50 [4] [µg/mL] | EC50 [5] [µg/mL] | further results |
| --- | --- | --- | --- | --- | --- |
| B1 | binds | – | – | – | – |
| B2 | binds | – | – | – | – |
| B3 | – | – | – | – | binding result [2]: binds |
| B4 | – | 0.228 | 0.117 | 0.13 | – |
| B5 | – | 0.115 | 0.0716 | 0.0695 | 刺激T淋巴细胞IL-2分泌的EC50 (MLR, CD4+ T cells and DC) [6]: 0.062 µg/mL; EC50 [7]: 0.0206 µg/mL; Kd [8]: 0.17 nM; binding result [9]: no binding (tested: 1ug/ml); binding result [10]: no binding (tested: 1ug/ml); binding result [11]: no binding (tested: 1ug/ml) |
